Source: the nanobody polyreactivity screen of Harvey et al. (2022)

test: yeast display, Sf9 membrane polyspecificity reagent, FACS + sequencing; frameworks hold sequencing errors
Procedure, shortened: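 Nanobodies came from a synthetic yeast display library in Saccharomyces cerevisiae BJ5465, induced with galactose for 36–48 hours and stained for 1 hour at 4 °C with 10% biotinylated, detergent-solubilized Sf9 membrane reagent. Cells were enriched on streptavidin microbeads and then FACS-sorted, with low and high (top ~1%) gates set on anti-HA fluorescence for expression and streptavidin fluorescence for reagent binding. Each polyreactivity label reflects the gate a clone came from. Genes were amplified by colony PCR, sequenced by MiSeq 2 × 250 and filtered by CDR length.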

Row | Sequence | polyreactivity (PSR sort gate)
1 | QVQLVESGGGLVQAGGSLRLSCAASGFTFRYYAMGWYRQAPGKERELVAAISSGGRTNYADSVKGRFTISRDNAKNTVYLQMNSLKPEDTAVYYCAKAQYYYIGDYDYWGQGTQVTVSS | high polyreactivity
2 | QVQLVESGGGLVQAGGSLRLSCAASGFTFRYYAMGWYRQAPGKERELVAGISWRGGSTNYADSVKGRFTISRDNAKNTVYLQMNSLKPEDTAVYYCNAVSYSFPIHRVRPTWYDYWGQGTQVTVSS | high polyreactivity
3 | QVQLVESGGGLVQAGGSLRLSCAASGFTFRYYAMGWYRQAPGKVRELVASITGGGRTYYADSVKGRFTISRDNAKNTVYLQMNSLKPEDTAVYYCATLVAYRLGSGYDSWGQGTQVTVSS | high polyreactivity
4 | QVQLVESGGGLVQAGGSLRLSCAASGFTFRYYSMGWYRQAPGKERELVAAISSGGSTKYADSVKGRFTISRDNAKNTVYLQMNSLKPEDTAVYYCAARVVDGAQPRYVVIINTRYYWGQGTQVTVSS | high polyreactivity
5 | QVQLVESGGGLVQAGGSLRLSCAASGFTFRYYVMGWYRQAPGKEGELVAAISWSGGTTYYADSVKGRFTISRDNAKNTVYLQMNSLKPEDTAVYYCAADVYLNRRQRMYFWGQGSQVTVSS | high polyreactivity
6 | QVQLVESGGGLVQAGGSLRLSCAASGFTFSAYAMGWYRQAPGKERELVAAIRSSDITYYADSVKGRFTISRDNAKNTVYLQMNSLKPEDTAVYYCAADLGDYYLYYDYEYWGQGTQVTVSS | high polyreactivity
7 | QVQLVESGGGLVQAGGSLRLSCAASGFTFSAYAMGWYRQAPGKERELVAAISRRGGSTYYADSVKGRFTISRDTAKNTVYLQMNSVKPEDTAVYYCATDYPPGYDYWGQGTQVSVSS | high polyreactivity
8 | QVQLVESGGGLVQAGGSLRLSCAASGFTFSAYAMGWYRQAPGKERELVAAITLRGGSTYYADSVKGRFTISRDNAKNTVYLQMNSLKPEDTAVYYCNADRWTRTEEEVDYWGQGTQVTVSS | low polyreactivity
9 | QVQLVESGGGLVQAGGSLRLSCAASGFTFSAYTMGWYRKAPGKERELVAAISWGGGSTFYADSVKGRFTISRDNAKNTVYLQMNSLKPEDTAVYYCNKQYVHPYDYWGQGTQVTLSS | high polyreactivity
10 | QVQLVESGGGLVQAGGSLRLSCAASGFTFSDYVMGWYRQAPGKERELVAVITSGSSTYYADSVKGRFTISRDNAKNTVYLQMNSLKPEDTAVYYCNADPDDGYFSDFDYWGQGTQVTVSS | low polyreactivity
11 | QVQLVESGGGLVQAGGSLRLSCAASGFTFSEYVMGWYRQAPGKERELVAVITSGSSTYYADSVKGRFTISRDNAKNTVYLQMNSLTPEDTAVYYCAAESYFFSPRTREKFDYWGQGTQVTVSA | low polyreactivity
12 | QVQLVESGGGLVQAGGSLRLSCAASGFTFSFYAIGLYRQATVKEREVVAAISWSGGSTYYADSVKGRFTISRDNAKNTVYLQMNSLKPEDTAVYFCAAKLLYGGRNGYWGQGTQVTVSS | high polyreactivity
13 | QVQLVESGGGLVQAGGSLRLSCAASGFTFSFYAMGWYRQAPGKERELVAAIDRSGGSTYYADSVKGRFTISRDNAKNTVYLQMNSLKPEDTAVYYCAATVFYGYYYWGQGTQVTVSS | high polyreactivity
14 | QVQLVESGGGLVQAGGSLRLSCAASGFTFSFYAMGWYRQAPGKERELVAAITSRGTSTYYADSVKGRFTISRDNAKNTVYLQMNSLKPEDTEVYYCAKLLPRGQWPYDYWGQGTQVTVSS | high polyreactivity
15 | QVQLVESGGGLVQAGGSLRLSCAASGFTFSHNAMGWSRQAPGKERELVAGINGSGGSTYYADSVKGRFTISRDNAKNTFYLQMNSLKPEDTAVYYCSKDGSNRLALPAWDYNYWGQGTQVTVSS | low polyreactivity
16 | QVQLVESGGGLVQAGGSLRLSCAASGFTFSHYAMGLSRQAPGKERELVAAITWSGGSTYYADSVKGRFTISRDNAKNTVYLQMKSLKPEDTAVYYCIALVIARNIEMDYWGQGTQVTVSS | high polyreactivity
